B1: PiggyBac transposable element-derived protein 1 (Homo sapiens), Q96JS3 (parent)
chain: MYEALPGPAPENEDGLVKVKEEDPTWEQVCNSQEGSSHTQEICRLRFRHFCYQEAHGPQEALAQLRELCHQWLRPEMHTKEQIMELLVLEQFLTILPKELQPCVKTYPLESGEEAVTVLENLETGSGDTGQQASVYIQGQDMHPMVAEYQGVSLECQSLQLLPGITTLKCEPPQRPQGNPQEVSGPVPHGSAHLQEKNPRDKAVVPVFNPVRSQTLVKTEEETAQAVAAEKWSHLSLTRRNLCGNSAQETVMSLSPMTEEIVTKDRLFKAKQETSEEMEQSGEASGKPNRECAPQIPCSTPIATERTVAHLNTLKDRHPGDLWARMHISSLEYAAGDITRKGRKKDKARVSELLQGLSFSGDSDVEKDNEPEIQPAQKKLKVSCFPEKSWTKRDIKPNFPSWSALDSGLLNLKSEKLNPVELFELFFDDETFNLIVNETNNYASQKNVSLEVTVQEMRCVFGVLLLSGFMRHPRREMYWEVSDTDQNLVRDAIRRDRFELIFSNLHFADNGHLDQKDKFTKLRPLIKQMNKNFLLYAPLEEYYCFDKSMCECFDSDQFLNGKPIRIGYKIWCGTTTQGYLVWFEPYQEESTMKVDEDPDLGLGGNLVMNFADVLLERGQYPYHLCFDSFFTSVKLLSALKKKGVRATGTIRENRTEKCPLMNVEHMKKMKRGYFDFRIEENNEIILCRWYGDGIISLCSNAVGIEPVNEVSCCDADNEEIPQISQPSIVKVYDECKEGVAKMDQIISKYRVRIRSKKWYSILVSYMIDVAMNNAWQLHRACNPGASLDPLDFRRFVAHFYLEHNAHLSD
B2: Elongation factor Ts, mitochondrial (Homo sapiens), P43897-2 (parent)
chain: MSLLRSLRVFLVARTGSYPAGSLLRQSPQPRHTFYAGPRLSASASSKELLMKLRRKTGYSFVNCKKALETCGGDLKQAEIWLHKEAQKEGWSKAAKLQGRKTKEGLIGLLQEGNTTVLVEVNCETDFVSRNLKFQLLVQQVALGTMMHCQTLKDQPSAYSKVQWLTPVNLALWEAEAGGSLEGFLNSSELSGLPAGPDREGSLKDQLALAIGKLGENMILKRAAWVKVPSGFYVGSYVHGAMQSPSLHKLVLGKYGALVICETSEQKTNLEDVGRRLGQHVVGMAPLSVGSLDDEPGGEAETKMLSQPYLLDPSITLGQYVQPQGVSVVDFVRFECGEGEEAAETE
B3: Chorion-specific transcription factor GCMb (Homo sapiens), O75603 (parent)
chain: MPAAAVQEAVGVCSYGMQLSWDINDPQMPQELALFDQFREWPDGYVRFIYSSDEKKAQRHLSGWAMRNTNNHNGHILKKSCLGVVVCTQACTLPDGSRLQLRPAICDKARLKQQKKACPNCHSALELIPCRGHSGYPVTNFWRLDGNAIFFQAKGVHDHPRPESKSETEARRSAIKRQMASFYQPQKKRIRESEAEENQDSSGHFSNIPPLENPEDFDIVTETSFPIPGQPCPSFPKSDVYKATCDLATFQGDKMPPFQKYSSPRIYLPRPPCSYELANPGYTNSSPYPTLYKDSTSIPNDTDWVHLNTLQCNVNSYSSYERSFDFTNKQHGWKPALGKPSLVERTNHGQFQAMATRPYYNPELPCRYLTTPPPGAPALQTVITTTTKVSYQAYQPPAMKYSDSVREVKSLSSCNYAPEDTGMSVYPEPWGPPVTVTRAASPSGPPPMKIAGDCRAIRPTVAIPHEPVSSRTDEAETWDVCLSGLGSAVSYSDRVGPFFTYNNEDF

Variants of: B1
Settings: with NR4A1, P22736-2
NR4A1, P22736-2, sequence (P22736 other isoform, or with tags, fused parts or gaps): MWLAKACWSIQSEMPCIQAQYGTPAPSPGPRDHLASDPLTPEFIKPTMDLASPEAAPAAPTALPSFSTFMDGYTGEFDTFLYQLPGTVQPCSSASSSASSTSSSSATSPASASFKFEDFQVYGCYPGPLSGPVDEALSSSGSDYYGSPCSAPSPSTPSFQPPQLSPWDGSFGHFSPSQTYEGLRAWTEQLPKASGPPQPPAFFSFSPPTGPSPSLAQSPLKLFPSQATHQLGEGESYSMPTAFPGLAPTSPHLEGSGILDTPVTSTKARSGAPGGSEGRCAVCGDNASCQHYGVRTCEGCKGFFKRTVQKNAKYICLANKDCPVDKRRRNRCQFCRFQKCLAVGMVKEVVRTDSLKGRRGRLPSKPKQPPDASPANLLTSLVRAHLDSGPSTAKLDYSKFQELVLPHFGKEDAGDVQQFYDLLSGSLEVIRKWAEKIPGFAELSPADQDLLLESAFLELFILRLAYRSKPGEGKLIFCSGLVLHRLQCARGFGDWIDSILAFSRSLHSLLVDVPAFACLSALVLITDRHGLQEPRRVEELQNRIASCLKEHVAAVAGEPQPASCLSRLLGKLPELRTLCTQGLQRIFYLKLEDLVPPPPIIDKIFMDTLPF

Q: Which “effect of a mutation on the interaction” value does the source give for G244E here?
A: The value was “with no effect”.

Q: Which “effect of a mutation on the interaction” value does the source give for I678V here?
A: The value was “with no effect”.

Q: For H806D, which “effect of a mutation on the interaction” value is on record?
A: The value was “with no effect”.

Variants of: B1
Settings: with znf24_human ZNF24, P17028
znf24_human ZNF24, P17028, sequence (P17028 whole entry): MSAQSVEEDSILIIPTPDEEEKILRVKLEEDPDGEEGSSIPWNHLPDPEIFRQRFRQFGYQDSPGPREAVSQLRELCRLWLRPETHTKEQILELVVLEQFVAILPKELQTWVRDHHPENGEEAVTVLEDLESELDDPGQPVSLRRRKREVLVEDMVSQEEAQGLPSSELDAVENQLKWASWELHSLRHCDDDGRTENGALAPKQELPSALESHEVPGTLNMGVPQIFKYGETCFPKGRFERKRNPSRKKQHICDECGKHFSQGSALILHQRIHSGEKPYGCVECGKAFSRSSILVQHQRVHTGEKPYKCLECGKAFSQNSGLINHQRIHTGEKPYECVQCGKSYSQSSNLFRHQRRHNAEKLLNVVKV

Q: G244E was tested. Which “effect of a mutation on the interaction” value did it give?
A: Its value is “with no effect”.

Q: Which “effect of a mutation on the interaction” value does the source give for I678V here?
A: The value was “with no effect”.

Q: Which “effect of a mutation on the interaction” value does the source give for H806D here?
A: Its value is “with no effect”.

Variants of: B1
Settings: with zn496_human ZNF496, Q96IT1
zn496_human ZNF496, Q96IT1, sequence (Q96IT1 whole entry): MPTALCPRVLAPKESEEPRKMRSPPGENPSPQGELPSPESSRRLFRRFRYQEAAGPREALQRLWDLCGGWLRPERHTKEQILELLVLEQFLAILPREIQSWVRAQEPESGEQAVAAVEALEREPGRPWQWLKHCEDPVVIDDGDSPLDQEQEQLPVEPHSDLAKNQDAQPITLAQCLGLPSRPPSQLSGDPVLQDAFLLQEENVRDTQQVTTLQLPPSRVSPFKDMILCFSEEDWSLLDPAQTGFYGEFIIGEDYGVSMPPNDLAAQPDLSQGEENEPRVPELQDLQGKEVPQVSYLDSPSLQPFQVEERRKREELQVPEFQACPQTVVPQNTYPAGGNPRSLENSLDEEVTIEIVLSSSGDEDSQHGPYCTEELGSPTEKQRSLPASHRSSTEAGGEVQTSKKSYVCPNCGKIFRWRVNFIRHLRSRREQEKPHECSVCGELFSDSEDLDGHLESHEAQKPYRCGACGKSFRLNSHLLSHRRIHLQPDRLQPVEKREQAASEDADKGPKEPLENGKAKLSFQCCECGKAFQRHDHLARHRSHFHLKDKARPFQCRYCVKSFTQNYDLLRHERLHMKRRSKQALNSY

Q: How did the “effect of a mutation on the interaction” value turn out when G244E was run?
A: The value was “with no effect”.

Q: I678V was tested. Which “effect of a mutation on the interaction” value did it give?
A: Its value is “with no effect”.

Q: For H806D, which “effect of a mutation on the interaction” value is on record?
A: Its value is “with no effect”.

Variants of: B1
Settings: with zsc22_human ZSCAN22, P10073
zsc22_human ZSCAN22, P10073, sequence (P10073 whole entry): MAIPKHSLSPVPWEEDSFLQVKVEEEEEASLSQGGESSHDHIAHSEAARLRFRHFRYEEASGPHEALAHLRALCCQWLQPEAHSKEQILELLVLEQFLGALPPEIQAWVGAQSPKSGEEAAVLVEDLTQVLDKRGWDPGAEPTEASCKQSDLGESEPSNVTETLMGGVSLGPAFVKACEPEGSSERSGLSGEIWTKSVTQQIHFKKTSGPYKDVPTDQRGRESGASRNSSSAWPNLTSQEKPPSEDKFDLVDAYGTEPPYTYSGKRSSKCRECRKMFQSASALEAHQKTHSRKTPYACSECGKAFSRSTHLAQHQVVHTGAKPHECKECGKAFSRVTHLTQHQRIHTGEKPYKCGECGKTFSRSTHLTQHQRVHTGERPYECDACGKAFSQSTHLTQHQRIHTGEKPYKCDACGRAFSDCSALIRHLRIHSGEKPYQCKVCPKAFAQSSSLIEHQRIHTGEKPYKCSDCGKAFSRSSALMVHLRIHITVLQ

Q: G244E was tested. Which “effect of a mutation on the interaction” value did it give?
A: The value was “with no effect”.

Q: Which “effect of a mutation on the interaction” value does the source give for I678V here?
A: The value was “with no effect”.

Q: How did the “effect of a mutation on the interaction” value turn out when H806D was run?
A: Its value is “with no effect”.

Variants of: B1
Settings: with meox2_human MEOX2, P50222
meox2_human MEOX2, P50222, sequence (P50222 whole entry): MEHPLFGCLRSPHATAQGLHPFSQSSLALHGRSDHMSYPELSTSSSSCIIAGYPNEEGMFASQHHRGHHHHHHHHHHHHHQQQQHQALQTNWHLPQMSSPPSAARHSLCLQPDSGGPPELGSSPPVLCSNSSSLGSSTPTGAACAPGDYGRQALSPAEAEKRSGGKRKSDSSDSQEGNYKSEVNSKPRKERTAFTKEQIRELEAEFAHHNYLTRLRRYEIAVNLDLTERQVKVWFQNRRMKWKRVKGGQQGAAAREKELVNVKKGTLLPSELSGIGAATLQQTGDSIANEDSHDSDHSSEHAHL

Q: For G244E, which “effect of a mutation on the interaction” value is on record?
A: Its value is “with no effect”.

Q: How did the “effect of a mutation on the interaction” value turn out when I678V was run?
A: The value was “with no effect”.

Q: For H806D, which “effect of a mutation on the interaction” value is on record?
A: The value was “with no effect”.

Variants of: B2
Settings: with pp12c_human PPP1R12C

Q: MSLLRSLRVFLVARTGSYPAGSLLRQSPQPRHTFYAGPRLSASASSKELLMKLRRKTGYSFVNCKKALETCGGDLKQAEIWLHKEAQKEGWSKAAKLQGRKTKEGLIGLLQEGNTTVLVEVNCETDFVSRNLKFQLLVQQVALGTMMHCQTLKDQPSAYSKVQWLTPVNLALWEAEAGGSLEGFLNSSELSGLPAGPDREGSLKDQLALAIGKLGENMILKRAAWVKVPSGFYVGSYVHGAMQSPSLHKLVLGKYGALVICETSEQKTNLEDVGRRLGQHVVGMAPLSVGSLDDEPGGEAETKMLSQPYLLDPSITLGQYVQPQGVSVVDFVWFECGEGEEAAETE [R333W] was tested. Which “effect of a mutation on the interaction” value did it give?
A: Its value is “disrupting interaction strength”.

Variants of: B3
Settings: with crx_human CRX

Q: Which “effect of a mutation on the interaction” value does the source give for MPAAAVQEAVGVCSYGMQLSWDINDPQMPQELALFDQFREWPDGYVLFIYSSDEKKAQRHLSGWAMRNTNNHNGHILKKSCLGVVVCTQACTLPDGSRLQLRPAICDKARLKQQKKACPNCHSALELIPCRGHSGYPVTNFWRLDGNAIFFQAKGVHDHPRPESKSETEARRSAIKRQMASFYQPQKKRIRESEAEENQDSSGHFSNIPPLENPEDFDIVTETSFPIPGQPCPSFPKSDVYKATCDLATFQGDKMPPFQKYSSPRIYLPRPPCSYELANPGYTNSSPYPTLYKDSTSIPNDTDWVHLNTLQCNVNSYSSYERSFDFTNKQHGWKPALGKPSLVERTNHGQFQAMATRPYYNPELPCRYLTTPPPGAPALQTVITTTTKVSYQAYQPPAMKYSDSVREVKSLSSCNYAPEDTGMSVYPEPWGPPVTVTRAASPSGPPPMKIAGDCRAIRPTVAIPHEPVSSRTDEAETWDVCLSGLGSAVSYSDRVGPFFTYNNEDF [R47L] here?
A: Its value is “with no effect”.

Q: How did the “effect of a mutation on the interaction” value turn out when MPAAAVQEAVGVCSYGMQLSWDINDPQMPQELALFDQFREWPDGYVRFIYSSDEKKAQRHLSSWAMRNTNNHNGHILKKSCLGVVVCTQACTLPDGSRLQLRPAICDKARLKQQKKACPNCHSALELIPCRGHSGYPVTNFWRLDGNAIFFQAKGVHDHPRPESKSETEARRSAIKRQMASFYQPQKKRIRESEAEENQDSSGHFSNIPPLENPEDFDIVTETSFPIPGQPCPSFPKSDVYKATCDLATFQGDKMPPFQKYSSPRIYLPRPPCSYELANPGYTNSSPYPTLYKDSTSIPNDTDWVHLNTLQCNVNSYSSYERSFDFTNKQHGWKPALGKPSLVERTNHGQFQAMATRPYYNPELPCRYLTTPPPGAPALQTVITTTTKVSYQAYQPPAMKYSDSVREVKSLSSCNYAPEDTGMSVYPEPWGPPVTVTRAASPSGPPPMKIAGDCRAIRPTVAIPHEPVSSRTDEAETWDVCLSGLGSAVSYSDRVGPFFTYNNEDF [G63S] was run?
A: Its value is “with no effect”.

Q: With MPAAAVQEAVGVCSYGMQLSWDINDPQMPQELALFDQFREWPDGYVRFIYSSDEKKAQRHLSGWAMRNTNNHNGHILKKSCLGVVVCTQACTLPDGSRLQLRPAICDKARLKQQKKACPNCHSALELIPCRGHSGYPVTNFWRLDGNAIFFQAKGVHDHPRPESKSETEARRSAIKRQMASFYQPQKKRIRESEAEENQDSSSHFSNIPPLENPEDFDIVTETSFPIPGQPCPSFPKSDVYKATCDLATFQGDKMPPFQKYSSPRIYLPRPPCSYELANPGYTNSSPYPTLYKDSTSIPNDTDWVHLNTLQCNVNSYSSYERSFDFTNKQHGWKPALGKPSLVERTNHGQFQAMATRPYYNPELPCRYLTTPPPGAPALQTVITTTTKVSYQAYQPPAMKYSDSVREVKSLSSCNYAPEDTGMSVYPEPWGPPVTVTRAASPSGPPPMKIAGDCRAIRPTVAIPHEPVSSRTDEAETWDVCLSGLGSAVSYSDRVGPFFTYNNEDF [G203S] as the variant, how does the “effect of a mutation on the interaction” value read?
A: The value was “with no effect”.

Variants of: B3
Settings: with RBPMS

Q: MPAAAVQEAVGVCSYGMQLSWDINDPQMPQELALFDQFREWPDGYVLFIYSSDEKKAQRHLSGWAMRNTNNHNGHILKKSCLGVVVCTQACTLPDGSRLQLRPAICDKARLKQQKKACPNCHSALELIPCRGHSGYPVTNFWRLDGNAIFFQAKGVHDHPRPESKSETEARRSAIKRQMASFYQPQKKRIRESEAEENQDSSGHFSNIPPLENPEDFDIVTETSFPIPGQPCPSFPKSDVYKATCDLATFQGDKMPPFQKYSSPRIYLPRPPCSYELANPGYTNSSPYPTLYKDSTSIPNDTDWVHLNTLQCNVNSYSSYERSFDFTNKQHGWKPALGKPSLVERTNHGQFQAMATRPYYNPELPCRYLTTPPPGAPALQTVITTTTKVSYQAYQPPAMKYSDSVREVKSLSSCNYAPEDTGMSVYPEPWGPPVTVTRAASPSGPPPMKIAGDCRAIRPTVAIPHEPVSSRTDEAETWDVCLSGLGSAVSYSDRVGPFFTYNNEDF [R47L] was tested. Which “effect of a mutation on the interaction” value did it give?
A: Its value is “with no effect”.

Q: For MPAAAVQEAVGVCSYGMQLSWDINDPQMPQELALFDQFREWPDGYVRFIYSSDEKKAQRHLSSWAMRNTNNHNGHILKKSCLGVVVCTQACTLPDGSRLQLRPAICDKARLKQQKKACPNCHSALELIPCRGHSGYPVTNFWRLDGNAIFFQAKGVHDHPRPESKSETEARRSAIKRQMASFYQPQKKRIRESEAEENQDSSGHFSNIPPLENPEDFDIVTETSFPIPGQPCPSFPKSDVYKATCDLATFQGDKMPPFQKYSSPRIYLPRPPCSYELANPGYTNSSPYPTLYKDSTSIPNDTDWVHLNTLQCNVNSYSSYERSFDFTNKQHGWKPALGKPSLVERTNHGQFQAMATRPYYNPELPCRYLTTPPPGAPALQTVITTTTKVSYQAYQPPAMKYSDSVREVKSLSSCNYAPEDTGMSVYPEPWGPPVTVTRAASPSGPPPMKIAGDCRAIRPTVAIPHEPVSSRTDEAETWDVCLSGLGSAVSYSDRVGPFFTYNNEDF [G63S], which “effect of a mutation on the interaction” value is on record?
A: The value was “disrupting interaction strength”.

Q: For MPAAAVQEAVGVCSYGMQLSWDINDPQMPQELALFDQFREWPDGYVRFIYSSDEKKAQRHLSGWAMRNTNNHNGHILKKSCLGVVVCTQACTLPDGSRLQLRPAICDKARLKQQKKACPNCHSALELIPCRGHSGYPVTNFWRLDGNAIFFQAKGVHDHPRPESKSETEARRSAIKRQMASFYQPQKKRIRESEAEENQDSSSHFSNIPPLENPEDFDIVTETSFPIPGQPCPSFPKSDVYKATCDLATFQGDKMPPFQKYSSPRIYLPRPPCSYELANPGYTNSSPYPTLYKDSTSIPNDTDWVHLNTLQCNVNSYSSYERSFDFTNKQHGWKPALGKPSLVERTNHGQFQAMATRPYYNPELPCRYLTTPPPGAPALQTVITTTTKVSYQAYQPPAMKYSDSVREVKSLSSCNYAPEDTGMSVYPEPWGPPVTVTRAASPSGPPPMKIAGDCRAIRPTVAIPHEPVSSRTDEAETWDVCLSGLGSAVSYSDRVGPFFTYNNEDF [G203S], which “effect of a mutation on the interaction” value is on record?
A: The value was “with no effect”.
